Tests used:
EphA2蛋白 = EphA2蛋白 (UniProt P29317 25-534, limits assumed); assay: ELISA, antigen coated at 1 μg/mL
B7-H3蛋白 = target: T1, B7-H3蛋白 (UniProt Q5ZPR3-2 29-245, limits assumed); assay: ELISA, antigen coated at 1 μg/mL
T1 sequence (looked up): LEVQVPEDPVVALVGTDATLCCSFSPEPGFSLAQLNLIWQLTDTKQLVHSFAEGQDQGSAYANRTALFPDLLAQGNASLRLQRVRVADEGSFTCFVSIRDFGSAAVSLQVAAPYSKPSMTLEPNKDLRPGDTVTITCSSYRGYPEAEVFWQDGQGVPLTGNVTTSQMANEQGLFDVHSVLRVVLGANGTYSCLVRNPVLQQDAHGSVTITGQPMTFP

Trop2蛋白 = target: T2, Trop2蛋白 (UniProt P09758 27-274); assay: ELISA, antigen coated at 1 μg/mL
T2 sequence (looked up): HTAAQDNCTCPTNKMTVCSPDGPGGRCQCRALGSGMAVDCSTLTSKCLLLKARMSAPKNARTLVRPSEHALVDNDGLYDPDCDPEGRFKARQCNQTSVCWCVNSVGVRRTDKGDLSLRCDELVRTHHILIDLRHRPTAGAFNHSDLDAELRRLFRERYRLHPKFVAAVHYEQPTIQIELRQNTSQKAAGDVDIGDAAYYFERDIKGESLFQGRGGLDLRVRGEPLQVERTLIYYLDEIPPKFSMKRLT

CD24蛋白 = target: T3, CD24蛋白 (UniProt P25063 27-59); assay: ELISA, antigen coated at 1 μg/mL
T3 chain (looked up): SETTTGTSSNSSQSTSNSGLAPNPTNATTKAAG

human-siglec-15蛋白 = target: T4, human-siglec-15蛋白 (human, UniProt Q6ZMC9 20-263, biotinylated in the BLI assay and in phage panning (site not stated)); assay: BLI (Octet RED96), biotinylated siglec-15 on SA sensor, antibody at 5, 10, 20 μg/mL
T4 construct: Bought protein (Novoprotein for ELISA coating; biotinylated antigen from Obiosh for panning); The same entry is used for the plain and the biotinylated protein; also called hsiglec-15; siglec-15抗原
T4 sequence (looked up): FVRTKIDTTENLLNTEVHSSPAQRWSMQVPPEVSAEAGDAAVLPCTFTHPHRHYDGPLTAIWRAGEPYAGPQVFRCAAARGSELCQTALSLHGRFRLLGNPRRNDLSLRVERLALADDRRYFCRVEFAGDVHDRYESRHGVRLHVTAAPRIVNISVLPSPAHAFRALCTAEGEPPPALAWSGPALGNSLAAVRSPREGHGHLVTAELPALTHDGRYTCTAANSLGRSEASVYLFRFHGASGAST

Chain of EphA2蛋白 (P29317 25-534 limits assumed): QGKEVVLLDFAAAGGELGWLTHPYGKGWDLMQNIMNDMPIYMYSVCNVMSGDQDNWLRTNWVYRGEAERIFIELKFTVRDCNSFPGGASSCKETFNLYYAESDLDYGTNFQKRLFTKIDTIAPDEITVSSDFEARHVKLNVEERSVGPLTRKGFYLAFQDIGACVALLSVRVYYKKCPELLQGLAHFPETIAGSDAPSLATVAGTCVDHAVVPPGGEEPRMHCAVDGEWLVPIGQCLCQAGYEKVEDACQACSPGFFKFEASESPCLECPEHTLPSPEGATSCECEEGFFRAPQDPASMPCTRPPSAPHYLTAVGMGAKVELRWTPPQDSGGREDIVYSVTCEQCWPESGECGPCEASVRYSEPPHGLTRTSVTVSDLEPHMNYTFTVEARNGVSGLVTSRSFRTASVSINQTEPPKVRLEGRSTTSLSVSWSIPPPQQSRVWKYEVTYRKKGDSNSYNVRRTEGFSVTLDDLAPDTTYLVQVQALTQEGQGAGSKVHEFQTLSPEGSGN

B1: S131-IgG1 (antibody, V domains shown)
VH: QVQLQESGPGLVNPSGTLSLSCTVSGDSIRNWYSWVRQPPGKGLEWIGEIHDNGGTNHNPSLKSRVTMSVGKSTSQLSLILNSVTAADTAVYHCAREGLPDGLDIWGPGTMVTVSS
VL: SSELTQDPAVSVALGQTVRITCQGDSLRSYYASWYQRKPGQAPILVMYGQNNRPSGIPDRFSGSNSRNTASLTITGAQAEDEADYYCGSRDTSDYRVLFGGGTKLTVLG
notes: also called 抗siglec15-IgG1重组抗体S131-IgG1; 全人源抗siglec-15-IgG1抗体
- binding result (EphA2蛋白): no binding
- binding result (B7-H3蛋白): no binding
- binding result (Trop2蛋白): no binding
- binding result (CD24蛋白): no binding
- Kd (human-siglec-15蛋白): ~1 nM

— patent CN117924498A (UNIV SOUTHWEST MEDICAL, dated 2024)
